Percent of protein pelleted with MTs data for one substance are collected here from paper PMC7278352.

For this assay, the target named is pre-formed paclitaxel-stabilized microtubules (tubulin isolated from porcine brain) (porcine) (UniProt P02550). The experiment in a line: co-sedimentation; pre-formed paclitaxel-stabilized MTs (100 ug/ml tubulin) incubated 30 min at room temperature with 250 ug/ml protein in General tubulin buffer (80 mM PIPES, 0.5 mM EGTA, 2 mM MgCl2, pH 6.9) with 1 mM GTP and 5% glycerol; spun through a 60% glycerol cushion at 100,000 x g for 40 min; band intensity in pellet and supernatant on SDS-PAGE, 5 repeats.
UniProt P02550, sequence (P02550 whole entry, looked up): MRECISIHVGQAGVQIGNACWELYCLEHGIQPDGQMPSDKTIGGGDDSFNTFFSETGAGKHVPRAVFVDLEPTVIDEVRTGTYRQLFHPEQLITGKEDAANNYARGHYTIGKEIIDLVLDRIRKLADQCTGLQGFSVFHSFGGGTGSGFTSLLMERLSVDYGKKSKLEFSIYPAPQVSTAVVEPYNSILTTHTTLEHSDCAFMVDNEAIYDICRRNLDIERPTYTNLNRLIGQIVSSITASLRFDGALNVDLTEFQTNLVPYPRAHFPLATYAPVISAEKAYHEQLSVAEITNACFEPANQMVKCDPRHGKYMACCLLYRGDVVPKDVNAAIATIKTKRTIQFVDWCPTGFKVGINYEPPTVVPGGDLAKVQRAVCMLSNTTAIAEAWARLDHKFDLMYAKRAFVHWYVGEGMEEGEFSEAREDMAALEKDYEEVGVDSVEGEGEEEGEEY

As to “microtubule-associated protein fraction (MAPF)”, the percent of protein pelleted with MTs is 78%.
